# Data taken from US20110015120A1, “Pharmaceutical and cosmetic compositions including lactoferrin, ciclopirox, etidronic acid” (VALETUDO S . r . l ., priority 2009, published 2011).
# Where “and” joins values, the source holds several entries; their conditions need not be identical. Equal values may be shown once.
# B1: Lactoferrin (protein, UniProt P02788 20-710, looked up)
# Lactotransferrin: GRRRSVQWCAVSQPEATKCFQWQRNMRKVRGPPVSCIKRDSPIQCIQAIAENRADAVTLDGGFIYEAGLAPYKLRPVAAEVYGTERQPRTHYYAVAVVKKGGSFQLNELQGLKSCHTGLRRTAGWNVPIGTLRPFLNWTGPPEPIEAAVARFFSASCVPGADKGQFPNLCRLCAGTGENKCAFSSQEPYFSYSGAFKCLRDGAGDVAFIRESTVFEDLSDEAERDEYELLCPDNTRKPVDKFKDCHLARVPSHAVVARSVNGKEDAIWNLLRQAQEKFGKDKSPKFQLFGSPSGQKDLLFKDSAIGFSRVPPRIDSGLYLGSGYFTAIQNLRKSEEEVAARRARVVWCAVGEQELRKCNQWSGLSEGSVTCSSASTTEDCIALVLKGEADAMSLDGGYVYTAGKCGLVPVLAENYKSQQSSDPDPNCVDRPVEGYLAVAVVRRSDTSLTWNSVKGKKSCHTAVDRTAGWNIPMGLLFNQTGSCKFDEYFSQSCAPGSDPRSNLCALCIGDEQGENKCVPNSNERYYGYTGAFRCLAENAGDVAFVKDVTVLQNTDGNNNEAWAKDLKLADFALLCLDGKRKPVTEARSCHLAMAPNHAVVSRMDKVERLKQVLLHQQAKFGRNGSDCPDKFCLFQSETKNLLFNDNTECLARLHGKTTYEKYLGPQYVAGITNLKKCSTSPLLEACEFLRK
# Tested on: MALASSEZIA GLOBOSA
# Test: Inhibition of Malassezia globosa growth, colony count (UFC/ml) on Dixon's Agar
# Format: cell-based
# Details: for dil 10X colony count: 200 μl of suspension diluted 10X on Petri dish; for dil 10X colony count / X50 (calculation made based on the dilution): three replicates; for AVERAGE: average of three replicates; for % reduction of Malassezia globosa cells growth (% increase of antimycotic activity): compared to CICLOPIROXOLAMINE alone; for X50 (calculation made based on the dilution): dil 10X count x50
# Protocol: To assess the capacity of the LACTOFERRIN to enhance the antimycotic action of the CIPROPIROXOLAMIN, a suspension of a MALASSEZIA GLOBOSA STRAIN is inoculated on a specific culture medium and the capacity of the compounds to inhibit the mycotic growth is observed, by counting of the UFC/ml.
# As first approach, the two compounds are tested at the concentration of 1:500 and, subsequently, diluted in culture medium at 2 decreasing concentrations (10× and 100×) in order to visualize the individual activities. Then in order to evaluate the capacity of the LACTOFERRIN to increase the antimycotic effect of the CICLOPIROXOLAMIN, the same test was carried out on the mix of the two active ingredients at different ratios (1:2 and 1:5).
# Each test was performed three times and the incubation times were 1 and 4 hours respectively.
# Based on the results obtained, the best dilution for the execution of the tests was the 10× dilution and both the incubation times (1 hour and 4 hours) were taken into consideration since the experimental conditions permitted an accurate count to be carried out of the colonies on the Petri dishes.
# The microorganism used is MALASSEZIA GLOBOSA.
# The microorganisms were cultured in specific culture medium (Dixon's Agar) until reaching a concentration of approximately […] per ml. Aliquots of 1 ml of this inoculum were then taken to which were added respectively: • Ciclopiroxolamine 1:500 • Lactoferrin 1:500 • Mixture 1:2 Ciclopiroxolamine:lactoferrin • Mixture 1:5 Ciclopiroxolamine:lactoferrin
# As positive control, the untreated inoculum was used (MALASSEZIA and diluting liquid), as negative controls the two active ingredients in diluting liquid.
# After incubations of 1 hour and 4 hours respectively, aliquots of 200 μl of each suspension were spread on Petri dishes.
# For each treatment, the test was carried out three times and for 3 different dilutions (non diluted suspension (TQ), dilution 10× and dilution 100×).
# The 54 dishes obtained were then examined, after incubation of 5-6 days and the microbial load of each specimen was calculated (UFC/ml).
# The % increase of the antimycotic property corresponds to the % reduction of the growth of Malassezia Globosa
molecule,measurement,setting,value
B1,Log (AVERAGE),period of incubation 1 hour,4.13
same,dil 10X colony count,period of incubation 1 hour,303 and 256 and 250
same,AVERAGE,period of incubation 1 hour,13483.33 UFC/ml
same,% reduction of Malassezia globosa cells growth (% increase of antimycotic activity),period of incubation 1 hour,−39.4%
same,X50 (calculation made based on the dilution),period of incubation 1 hour,15150 UFC/ml and 12800 UFC/ml and 12500 UFC/ml
same,Log (AVERAGE),period of incubation 4 hour,4.109
same,dil 10X colony count,period of incubation 4 hour,340 and 232 and 200
same,AVERAGE,period of incubation 4 hour,12866.67 UFC/ml
same,% reduction of Malassezia globosa cells growth (% increase of antimycotic activity),period of incubation 4 hour,−695.8%
same,X50 (calculation made based on the dilution),period of incubation 4 hour,17000 UFC/ml and 11600 UFC/ml and 10000 UFC/ml
